# Reference: article PMC9849103 (Nature Communications, 2023)
# B1: C2606 (antibody, V domains shown)
# VH: QVQLVQSGAEVKKPGSSVKVSCKASGDTFRSYAISWVRQAPGQGLEWMGRIIPMLGITTYEQKYQGRLKIIADKSTSTAYMELSSLRSEDTAVYFCARDGVGATEPYYYDYWGQGTLVTVSS
# VL: QSVLTQPASVSGSPGQSIIISCTGTSSDVGKYDFVSWYQQHPGKAPKLMIYDVSKRPSGVSDRFSGSKSGNTASLTISGLQAEDEADYHCASYTSDSSYLVFGGGTKLTVL
# notes: source: 293-6E cells, transfected, purified (Protein G Sepharose)
# B2: C3095 (antibody, V domains shown)
# VH: EVQLVETGGGLIQPGGSLRLSCAASEFIVSANYMHWVRQAPGQGLEWVSVIYAGGSTFYADSVKGRFTISRDNSKNSLYLQMNSLRAEDTAVYYCARGLGDYFDFWGQGTLVTVSS
# VL: DIQMTQSPSTLSASVGDRVTITCRASQSFSDWLAWYQQKPGSAPKLLIYRASSLESGVPSRFSGSGSGTEFTLTISSLQPDDFATYYCQQYNTYPLTFGGGTKVEIK
# notes: as for B1
# B3: C3055 (antibody, V domains shown)
# VH: QVQLVQSGAEVKKPGSSVNVSCRASGGTFSSKTISWVRQAPGQGLEWMGKIFPILGVANYAQKFQGRVTITADRSTNTAYMELNSLRSEDTAIYYCATEEGYSSSRSLPAEYFRQWGQGTLVTVSS
# VL: QSVLTQPPSVSGAPGQRVTISCTGSNSNIGAGYDVHWYQQLPGTAPKLLIYANTNRPSGVPDRFSGSKSGTSASLAITGLQAEDEADYYCQSYDSGLSGSLFGGGTKLTVL
# notes: as for B1
# B4: C3108 (antibody, V domains shown)
# VH: QVQLQESGPGLVKPSQTLSLTCTVSGGSISSGGYYWNWIRQSPVKGLEWIGYIYYSGGTYYNPSLRSRLTISLDTSNNQFSLRLNSVTAADTAIYYCARDQGAITFGTDAFEIWGQGTMVTVSS
# VL: DIQMTQSPSSLSASVGDRVTITCQASQDISKYLNWYQQKPGKAPKLLIYGASTLKAGVPSRFSGSGSGTDFTFTISSLQPEDIATYYCQQYDSLPPTFGGGTKVEIK
# notes: as for B1
# B5: C3102 (antibody, V domains shown)
# VH: QVQLVQSGAEVKKPGSSVKVSCKASGGTFRRYAISWVRQAPGQGLEWMGGIIPIAGAADYAQKFQARVTITADESTSTAYLELSSLRSEDTAVYYCAREISYCSGAPCYAGYYDYGMDVWGQGTTVTVSS
# VL: QSVLTQPPSASGTPGQRVTISCSGNSSNIGSNSVNWYQQLPGTAPKLLIKSTNQRPSGVPDRFSGSKSGTSASLAISGLQSEDEADYYCAAWEDVLNAVVFGGGTMLTV
# notes: as for B1
# B6: B1011 (antibody, V domains shown)
# VH: QVQLVQSGAEVKKPGASVKVSCKASGYTFISYYTHWVRQAPGQGLEWMGIINPSDGYTSYAQKFQGRVTMTRDTSASTVYMELSSLRSEDTAVYYCARDSSIAARVVAWGQGTLVTVSS
# VL: DIQMTQSPSSLSASVGDRVTITCQASQDIYNYLNWYQQKPGKAPKLLIFDAINLETGVPSRFSGSGSGTDFTFTISSLQPEDIATYYCQQHDNLPYSFGQGTKLEIK
# notes: as for B1
# B7: B1012 (antibody, V domains shown)
# VH: QVQLVQSGAEVKKPGASVKVSCKASGYTFISYYTHWVRQAPGQGLEWMGIINPSDGYTSYAQKFQGRVTMTRDTSASTVYMELSSLRSEDTAVYYCARDSSIAARVVAWGQGTLVTVSS
# VL: DIQMTQSPSSLSASVGDRVTITCQASQDIGNYLNWYQQKPGKAPKLLIFDASNLEAGVPSRFSASGSGTDFTFAISSLQPEDIAAYYCQQHDDLPYSFGQGTTLEIK
# notes: as for B1
# B8: B1034 (antibody, V domains shown)
# VH: QVQLVQSGSEVKKPGASVKVSCKASGNTFITYYTHWVRQAPGQGLEWMGVIKPSDGYTNYAQKFQGRVTMTRDTSASTVYMELSSLTSDDTAVYYCARDSSIAARVVDWGQGTLVTVSS
# VL: DIQMTQSPSSLSASVGDRVTITCQASQDIYNYLNWYQQKPGKAPKLLIFDAINLETGVPSRFSGSGSGTDFTLTISSLQPEDIATYYCQQHDNLPYSFGQGTKLEIK
# notes: as for B1
# B9: B2064 (antibody, V domains shown)
# VH: QVQLVQSGAEVKKPGSSVNVSCKASGGTLNIYTFSWVRQAPGQGLEWVGTIVPLVGKANYPHKFQGRVTITADKSTSTVNMELSSLRSEDTAVYYCASEVLDNLRDGYNFWGQGTLVTVSS
# VL: DIQMTQSPSSLSASVGDRVTITCRASQSVSSYLNWYQQKPGKAPKLLIYAVSSLQSGVPSRFSGSGSGTDFTLTISSLQPEDFATYYCQQTYNTLTFGGGTKVEIK
# notes: as for B1
# B10: B1026 (antibody, V domains shown)
# VH: QMQLVQSGPEIKKPGTSVKVSCKASGFTFSNSAVQWVRQARGQRLEWIGWIVVGSGDPNYAQKFQERVTLTRDMSTSTAYMELSSLRSEDTAVYYCATNHCSRTICSDGFDIWGQGTVVTVSS
# VL: EIVLTQSPVSLSLSPGERATLSCRASQTVRSSYFVWYQQKLGQAPRLLIYSASSRAAGIPDRFSGSGSGTDFTLTISRLEPEDFAVYYCQQYGSSPWTFGQGTKVEIK
# notes: as for B1
# B11: C2655 (antibody, V domains shown)
# VH: QVQLVQSGAEVKKPGSSVKVSCKASGGTFNSYAISWVRQAPGQGLEWMGGIIHVLGTANYAQRFQGRVTITADESTSTVYMELSSLRSEDTAVYYCARVGAPLGRADSGYDFYYYGMDVWGQGTTVTVSS
# VL: not shown
# notes: as for B1
# Target: WT RBD (SARS-CoV-2 Wuhan-Hu-1 spike receptor binding domain) (SARS-CoV-2 (Wuhan-Hu-1), UniProt P0DTC2)
# Test: BLI
# Conditions: both partners purified
row,Binder,Kd
1,B1,0.743 nM
2,B2,0.00158 nM
3,B3,0.592 nM
4,B4,0.96 nM
5,B5,0.639 nM
6,B6,0.893 nM
7,B7,0.572 nM
8,B8,0.734 nM
9,B9,0.866 nM
10,B10,12 nM
11,B11,1.34 nM
